± gives the standard deviation of the averaged measurements.
Tested on: ATP
Assay: switch fluorescence ratio, 500 uM ATP over buffer (Cy3 cluster intensity, sum of 5 cycles each) (fold (ratio)); higher = stronger signal-on switching upon ATP binding; sequences stand for … in TCGTCGGCAGCGTCAGATGTGTATAAGAGACAGTTTTTTTTTTTTTTTTTTTTTTTTT…TC
Conditions: aptamer strand: ATP DNA aptamer (quencher-CACCTGGGGGAGTATTGCGGAGGAAGG + anchor), 100 nM annealed; ATP concentration: 500 uM
In short: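 The fluorescence ratio divides summed target-cycle Cy3 intensity by summed buffer-cycle Cy3 intensity for each cluster and is averaged per switch-domain sequence. Cy3-labelled switching-strand clusters on a modified Illumina MiSeq flow-cell were annealed to 100 nM quencher-labelled ATP aptamer, then imaged in selection buffer and again after 15 min with 500 uM ATP at 22 °C. Five such cycles were run, with NaOH stripping and re-annealing between them, and clusters outside 100-1000 RFU were excluded.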
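Further: ATP exposure 15 min at 22 °C before imaging.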

Row | Sequence | switch fluorescence ratio
1 | TAAGAGGTTT | 0.995 ± 0.01
2 | TAAGAGTACA | 1.07 ± 0.011
3 | TAAGAGTGCT | 0.9726 ± 0.0043
4 | TAAGAGTTC | 0.99 ± 0.034
5 | TAAGCAGACG | 0.9687 ± 0.0061
6 | TAAGCAGTTA | 1.08 ± 0.12
7 | TAAGCCCACG | 1.09 ± 0.023
8 | TAAGCGGCGG | 1 ± 0.036
9 | TAAGCGGGGG | 0.999 ± 0.017
10 | TAAGCTCTGT | 0.984 ± 0.021
11 | TAAGCTGACG | 0.9973 ± 0.0098
12 | TAAGCTTATG | 0.9852 ± 0.0033
13 | TAAGGAAGTT | 1.009 ± 0.0096
14 | TAAGGACGAC | 1.02 ± 0.026
15 | TAAGGACGGC | 1.06 ± 0.035
16 | TAAGGAGTAA | 1.034 ± 0.01
17 | TAAGGAGTGC | 0.955 ± 0.12
18 | TAAGGATTAT | 1.008 ± 0.0024
19 | TAAGGCATAG | 1.04 ± 0.044
20 | TAAGGCGAAC | 1.03 ± 0.015
21 | TAAGGCGGTG | 1.04 ± 0.061
22 | TAAGGCGTAG | 1.08 ± 0.061
23 | TAAGGCGTTA | 0.985 ± 0.031
24 | TAAGGCTCCC | 1.063 ± 0.0044
25 | TAAGGGAATT | 1 ± 0.036
26 | TAAGGGGATG | 0.99 ± 0.011

Row | Sequence | switch fluorescence ratio
27 | TAAGGGGCAA | 1.01 ± 0.018
28 | TAAGGGGCGG | 0.989 ± 0.04
29 | TAAGGGGGGT | 1.02 ± 0.034
30 | TAAGGGGGTG | 1.01 ± 0.023
31 | TAAGGGTGTA | 0.9934 ± 0.004
32 | TAAGGGTTAC | 0.996 ± 0.03
33 | TAAGGTAGGT | 0.993 ± 0.016
34 | TAAGGTTGAC | 0.9953 ± 0.0035
35 | TAAGGTTGTA | 0.9705 ± 0.0047
36 | TAAGTAAAAT | 0.9968 ± 0.0089
37 | TAAGTACGTG | 1.18 ± 0.035
38 | TAAGTAGATT | 0.995 ± 0.018
39 | TAAGTATCGC | 1.03 ± 0.036
40 | TAAGTATTCG | 0.9972 ± 0.0086
41 | TAAGTATTGT | 1.012 ± 0.0084
42 | TAAGTCCACC | 1.012 ± 0.01
43 | TAAGTCCCCA | 1.01 ± 0.052
44 | TAAGTCCTT | 1.01 ± 0.048
45 | TAAGTGACGG | 1.04 ± 0.036
46 | TAAGTGGGGA | 0.959 ± 0.032
47 | TAAGTGGGTA | 0.991 ± 0.011
48 | TAAGTGGGTG | 1.01 ± 0.027
49 | TAAGTGGTGA | 1.04 ± 0.056
50 | TAAGTTGAGT | 1.01 ± 0.0093
51 | TAAGTTGTGT | 0.972 ± 0.036
52 | TAAGTTGTTG | 0.993 ± 0.042

Row | Sequence | switch fluorescence ratio
53 | TAAGTTGTTT | 0.996 ± 0.013
54 | TAATAAAAAA | 0.9772 ± 0.0069
55 | TAATAAAGGT | 0.995 ± 0.025
56 | TAATAAATCA | 1 ± 0.036
57 | TAATACTTCG | 1.03 ± 0.012
58 | TAATAGAAGT | 0.979 ± 0.052
59 | TAATAGGGGG | 1.02 ± 0.035
60 | TAATAGGTTC | 0.972 ± 0.024
61 | TAATATGGGT | 0.988 ± 0.023
62 | TAATATGTTC | 1 ± 0.037
63 | TAATATTTCG | 1.05 ± 0.04
64 | TAATCAGGAA | 1.015 ± 0.0046
65 | TAATCCATTT | 1.02 ± 0.036
66 | TAATCCTCGT | 1.005 ± 0.0058
67 | TAATCCTTTG | 1.01 ± 0.048
68 | TAATCGCGGC | 1.31 ± 0.35
69 | TAATCGGGAA | 1 ± 0.017
70 | TAATCTTTGG | 0.961 ± 0.035
71 | TAATGACTGT | 1.02 ± 0.045
72 | TAATGAGCTT | 0.995 ± 0.013
73 | TAATGATGAG | 0.987 ± 0.028
74 | TAATGATTGA | 0.985 ± 0.0078
75 | TAATGATTGC | 1.056 ± 0.0026
76 | TAATGCCAGG | 1.088 ± 0.0038
77 | TAATGCGTGG | 0.999 ± 0.032
78 | TAATGGGTAA | 1.01 ± 0.065

Row | Sequence | switch fluorescence ratio
79 | TAATGGGTCC | 0.99 ± 0.019
80 | TAATGGTCCG | 1.03 ± 0.03
81 | TAATGGTTCG | 0.9962 ± 0.0025
82 | TAATGGTTTG | 1.08 ± 0.12
83 | TAATGTATTT | 1.01 ± 0.02
84 | TAATGTGGCC | 1.01 ± 0.039
85 | TAATGTGGGG | 0.9715 ± 0.0056
86 | TAATGTGTTG | 0.994 ± 0.014
87 | TAATGTTGGT | 1.025 ± 0.0014
88 | TAATGTTTAG | 0.99019 ± 0.00022
89 | TAATTAAATT | 0.9767 ± 0.0046
90 | TAATTAGTTA | 0.992 ± 0.025
91 | TAATTCGTCG | 0.997 ± 0.018
92 | TAATTGAAGA | 0.971 ± 0.012
93 | TAATTGACCG | 1.091 ± 0.0088
94 | TAATTGAGCA | 0.99 ± 0.019
95 | TAATTGCCTT | 1.02 ± 0.017
96 | TAATTGGAGG | 0.9805 ± 0.0051
97 | TAATTGGGGC | 1.02 ± 0.012
98 | TAATTGTAAT | 1.04 ± 0.014
99 | TAATTGTAGG | 0.98 ± 0.032
100 | TAATTGTTTT | 1 ± 0.024
101 | TAATTTACAG | 1 ± 0.03
102 | TAATTTACTA | 1.04 ± 0.03
103 | TAATTTAGAA | 0.975 ± 0.021
104 | TAATTTCGGG | 0.986 ± 0.013

Row | Sequence | switch fluorescence ratio
105 | TAATTTCTGT | 1.01 ± 0.024
106 | TAATTTGAAT | 1.028 ± 0.0063
107 | TAATTTGGAA | 1.009 ± 0.0095
108 | TAATTTTGAG | 0.9957 ± 0.0029
109 | TAATTTTTG | 0.9976 ± 0.0011
110 | TACAAACGGT | 1.17 ± 0.25
111 | TACAAGATGT | 1.01 ± 0.029
112 | TACAAGCTAA | 0.978 ± 0.032
113 | TACAAGTAT | 0.997 ± 0.028
114 | TACAAGTCGA | 1.016 ± 0.0042
115 | TACAATCGCC | 1.06 ± 0.029
116 | TACACGGGTT | 1.01 ± 0.035
117 | TACAGAGATT | 0.9778 ± 0.0084
118 | TACAGATTGG | 0.979 ± 0.025
119 | TACAGGACTC | 1.09 ± 0.012
120 | TACAGGCTCG | 1.007 ± 0.01
121 | TACAGGGGGC | 1.12 ± 0.12
122 | TACAGGGGGT | 1.02 ± 0.062
123 | TACAGTTGCG | 1.02 ± 0.045
124 | TACATATCTT | 1.01 ± 0.025
125 | TACATCCGAG | 1.08 ± 0.029
126 | TACATGGGTT | 1.01 ± 0.0092
127 | TACATGTTAG | 1.01 ± 0.024
128 | TACCAATGGA | 1.02 ± 0.04
129 | TACCAATTAA | 1.01 ± 0.026
130 | TACCACGGGG | 1.04 ± 0.019

Row | Sequence | switch fluorescence ratio
131 | TACCACTGCG | 1.04 ± 0.029
132 | TACCAGGGGT | 0.9909 ± 0.0039
133 | TACCATTTTG | 1 ± 0.028
134 | TACCCGGGGT | 0.9827 ± 0.0097
135 | TACCGGGGAG | 1.021 ± 0.0045
136 | TACCGTGGGG | 1.05 ± 0.038
137 | TACCTAGTTA | 1.03 ± 0.029
138 | TACCTATGTT | 0.979 ± 0.011
139 | TACCTCACTA | 1.42 ± 0.17
140 | TACCTGGGGG | 1.02 ± 0.03
141 | TACCTGGTTA | 0.999 ± 0.049
142 | TACCTTCGTT | 1.04 ± 0.073
143 | TACGAAGGGT | 0.987 ± 0.009
144 | TACGAATCT | 1.03 ± 0.056
145 | TACGAATGAG | 0.9854 ± 0.0057
146 | TACGAATGGG | 1.01 ± 0.037
147 | TACGAGAGCC | 1.04 ± 0.037
148 | TACGAGCGAA | 1.34 ± 0.014
149 | TACGAGCTGA | 1.027 ± 0.0097
150 | TACGAGGGGG | 1 ± 0.021
151 | TACGAGGTGT | 1.06 ± 0.027
152 | TACGAGGTTT | 0.978 ± 0.03
153 | TACGATACAC | 1.44 ± 0.075

Reference: the supplement of paper PMC10126150
